Measurements: publication PMC9897460

Assays:
[1] = molecular target: 5FAM-PGC1α_144 coactivator peptide; assay: fluorescence polarisation
5FAM-NRIP1_1068 peptide = assay: fluorescence polarisation

Kd [1]: 2.01 µM | Kd (5FAM-NRIP1_1068 peptide): 8.24 µM
Substance: PPARγ ligand binding domain (LBD), delipidated (domain or fragment)
